This passage reports Kd results from the Immune Epitope Database (IEDB).

pKd: −log10 of the molar value.

One experiment addresses HLA-A*24:03. The experiment in a line: IEDB peptide-MHC binding, purified MHC/competitive/fluorescence; filed as Kd, often an IC50 or EC50 that approximates it; ≥ and ≤ were set here for values at or beyond the usual limits of such assays.
The target in the next experiment is HLA-A*02:16. The experiment is described as above.
A further experiment addresses HLA-B*39:01. Described as above.
For the next experiment, the target named is HLA-A*02:01. Described as above.
Experiment [1] concerns the target HLA-B*51:01. The experiment is described as above.
The target of another experiment is HLA-A*03:01. The experiment is described as above.
The target in the next experiment is HLA-B*46:01. Described as above.
Experiment [2] deals with HLA-B*27:03. The description is as above.
A further experiment deals with HLA-A*02:12. The experiment is described as above.
For a further experiment, the target named is HLA-A*02:19. The description is as above.
Experiment [3] deals with HLA-A*26:01. The description is as above.
The next experiment concerns the target HLA-B*57:01. The description is as above.
Experiment [4] deals with HLA-B*15:01. Described as above.
Another experiment deals with HLA-A*02:03. Described as above.
The next experiment concerns the target HLA-A*02:11. Described as above.
A further experiment concerns the target HLA-B*18:01. Described as above.
Another experiment deals with HLA-B*15:17. Described as above.
For the next experiment, the target named is HLA-C*14:02. The experiment in a line: IEDB peptide-MHC binding, purified MHC/direct/fluorescence; filed as Kd, often an IC50 or EC50 that approximates it; ≥ and ≤ were set here for values at or beyond the usual limits of such assays. The note with it: source organism: Mycobacterium tuberculosis str. Haarlem.
The target of a further experiment is HLA-B*15:09. The description is as above.
The target in another experiment is HLA-A*29:02. As to the kind of experiment: IEDB peptide-MHC binding, purified MHC/competitive/fluorescence; filed as Kd, often an IC50 or EC50 that approximates it; ≥ and ≤ were set here for values at or beyond the usual limits of such assays.
Another experiment concerns the target HLA-B*58:01. Described as above.
The next experiment has as its target HLA-A*01:01. Described as above.
The target in the next experiment is HLA-A*68:02. The experiment is described as above. The note with it: source organism: Giardia lamblia ATCC 50803.
A further experiment deals with HLA-A*69:01. The experiment is described as above. The note with it: source organism: Giardia lamblia ATCC 50803.
Experiment [5] has as its target HLA-B*51:01. The experiment in a line: IEDB peptide-MHC binding, purified MHC/direct/fluorescence; filed as Kd, often an IC50 or EC50 that approximates it; ≥ and ≤ were set here for values at or beyond the usual limits of such assays. The note with it: source organism: Vibrio parahaemolyticus AQ3810.
Experiment [6] has as its target HLA-B*27:03. Described as above. The note with it: source organism: Vibrio parahaemolyticus AQ3810.
Experiment [7] concerns the target HLA-A*26:01. The experiment is described as above. The note with it: source organism: Vibrio parahaemolyticus AQ3810.
For experiment [8], the target named is HLA-B*15:01. Described as above. The note with it: source organism: Vibrio parahaemolyticus AQ3810.
A further experiment deals with HLA-C*06:02. The description is as above. The note with it: source organism: Homo sapiens.
The mark [9] stands for this setting: source organism: Bacillus cereus ATCC 4342.
Setting [10] is: source organism: Giardia lamblia ATCC 50803.
The mark [11] stands for this setting: source organism: Yersinia pestis Nepal516.
The mark [12] stands for this setting: source organism: Escherichia coli O139:H28 str. E24377A.
[13] abbreviates: source organism: Francisella tularensis subsp. tularensis FSC198.

Turning to GLFWGGIWY, the pKd in the experiment with HLA-A*24:03 (setting [9]) is at most 4.70; in the experiment with HLA-A*02:16 (setting [9]), 5.25; with HLA-B*39:01 (setting [9]) it was at most 4.70; with HLA-A*02:01 (setting [9]), at most 4.70; with HLA-B*51:01 [1] (setting [9]), at most 4.70; in the experiment with HLA-A*03:01 (setting [9]) it was at most 4.70. In addition, the pKd in the experiment with HLA-B*46:01 (setting [9]), with HLA-B*27:03 [2] (setting [9]), in the experiment with HLA-A*02:12 (setting [9]), with HLA-A*02:19 (setting [9]), in the experiment with HLA-A*26:01 [3] (setting [9]) and with HLA-B*57:01 (setting [9]) was at most 4.70 each time. The pKd in the experiment with HLA-B*15:01 [4] (setting [9]) is at most 4.70; in the experiment with HLA-A*02:03 (setting [9]), at most 4.70; with HLA-A*02:11 (setting [9]) it was 6.08; with HLA-B*18:01 (setting [9]) it was at most 4.70; with HLA-B*15:17 (setting [9]), at most 4.70.
In the experiment with HLA-C*14:02, AAIAVGVAL had a pKd of at most 4.70.
For TMDVYVMIL, the results for the pKd with HLA-B*39:01 (source organism: Vibrio cholerae MAK 757) and with HLA-B*15:09 (source organism: Vibrio cholerae V52) were 7.91 and 6.42, respectively.
AILAGEHKC: the pKd with HLA-A*24:03 (setting [10]), with HLA-B*39:01 (setting [10]), with HLA-A*02:01 (setting [10]), with HLA-B*51:01 [1] (setting [10]), in the experiment with HLA-A*29:02 (setting [10]) and with HLA-A*03:01 (setting [10]) was at most 4.70 in each case. Further, the pKd was at most 4.70 with HLA-B*46:01 (setting [10]); at most 4.70 with HLA-B*27:03 [2] (setting [10]); 5.43 with HLA-A*02:12 (setting [10]); at most 4.70 in the experiment with HLA-A*02:19 (setting [10]); at most 4.70 with HLA-A*26:01 [3] (setting [10]); at most 4.70 with HLA-B*57:01 (setting [10]). For the same sequence, the pKd with HLA-B*15:01 [4] (setting [10]), in the experiment with HLA-A*02:03 (setting [10]), with HLA-A*02:11 (setting [10]), with HLA-B*18:01 (setting [10]) and in the experiment with HLA-B*15:17 (setting [10]) was at most 4.70 each time.
With YSSPHLLRY, the figures for the pKd with HLA-B*58:01 (setting [11]), with HLA-A*03:01 (setting [11]) and in the experiment with HLA-A*01:01 (setting [11]) were 8.35, 6.59 and 7.99, respectively.
With ISKANWMTY, the pKd with HLA-A*24:03 (setting [10]), in the experiment with HLA-A*02:16 (setting [10]), in the experiment with HLA-A*68:02, in the experiment with HLA-B*39:01 (setting [10]), with HLA-A*02:01 (setting [10]) and with HLA-B*51:01 [1] (setting [10]) was at most 4.70 throughout. Further, the pKd with HLA-A*03:01 (setting [10]), with HLA-A*69:01, with HLA-B*27:03 [2] (setting [10]), with HLA-A*02:12 (setting [10]), with HLA-A*02:19 (setting [10]) and with HLA-A*26:01 [3] (setting [10]) was at most 4.70 in each case. The pKd in the experiment with HLA-B*57:01 (setting [10]) was 7.08; with HLA-A*02:03 (setting [10]), at most 4.70; in the experiment with HLA-A*02:11 (setting [10]), at most 4.70; with HLA-B*18:01 (setting [10]), at most 4.70.
With ITAALAWSL, the pKd in the experiment with HLA-B*58:01 (setting [12]) is 6.17; with HLA-A*02:01 (setting [12]) it was 7.14; with HLA-A*01:01 (setting [12]), at most 4.70.
As for MAYGFFNNI, the pKd with HLA-B*51:01 [5] was 7.52; with HLA-B*27:03 [6] it was at most 4.70; with HLA-A*26:01 [7] it was at most 4.70; with HLA-B*15:01 [8], at most 4.70.
For NYIDKVRFL, the negative logarithm of the Kd (pKd) with HLA-A*29:02 (source organism: Homo sapiens) was 6.96; with HLA-A*01:01 (source organism: Homo sapiens), at most 4.70; in the experiment with HLA-C*06:02, 8.40.
For IANTTDHFF, the pKd in the experiment with HLA-A*24:03 (setting [10]), with HLA-A*02:16 (setting [10]), in the experiment with HLA-A*68:02, with HLA-B*39:01 (setting [10]), with HLA-A*02:01 (setting [10]) and in the experiment with HLA-B*51:01 [1] (setting [10]) was at most 4.70 each time. The pKd in the experiment with HLA-A*03:01 (setting [10]), in the experiment with HLA-A*69:01, in the experiment with HLA-B*27:03 [2] (setting [10]), with HLA-A*02:12 (setting [10]), with HLA-A*02:19 (setting [10]) and in the experiment with HLA-A*26:01 [3] (setting [10]) was at most 4.70 each time. In addition, the results for the pKd with HLA-B*57:01 (setting [10]), with HLA-A*02:03 (setting [10]) and with HLA-B*18:01 (setting [10]) were 6.80, at most 4.70 and at most 4.70, respectively.
In the case of TVIEGLDKL, the pKd with HLA-A*02:16 (setting [13]) is 6.71; with HLA-A*02:01 (setting [13]) it was 7.05.
In the experiment with HLA-B*15:09 (source organism: Listeria monocytogenes serotype 4b str. H7858), YDAHHRFIL gave a pKd of at most 4.70.

Broadly, the pKd is −log10 of the Kd, conventionally taken in molar units. A low value points to a large Kd.
